From patent US20220387578A1 (VANDERBILT UNIVERSITY, published 2022) come the findings set out here.

The target of assay [1] is T1, H1 HA A/Texas/36/1991 (H1N1), recombinant soluble trimer (influenza A virus).
T1 construct: extracellular domain
Briefly: ELISA on coated recombinant HA. Background: In an ELISA, binding on a coated surface is turned into a signal by an enzyme label.

For another assay, the target named is A/Puerto Rico/8/1934 (Influenza A virus). Kind of assay: ELISA on coated recombinant HA.
The target in assay [2] is H5 HA A/Vietnam/1203/2004 (H5N1), recombinant (influenza A virus). Kind of assay: ELISA on coated recombinant HA.
The target of assay [3] is H12 HA A/duck/Alberta/60/1976, recombinant (influenza A virus). Kind of assay: ELISA on coated recombinant HA.
For assay [4], the target named is T2, H3 HA A/Hong Kong/1/1968 (H3N2), recombinant soluble trimer (influenza A virus, UniProt Q91MA7 17-530). Kind of assay: ELISA on coated recombinant HA.
Assay [5] deals with H2 HA A/Singapore/1/1957, recombinant soluble trimer (influenza A virus). Briefly: ELISA on coated recombinant HA.
Assay [6] concerns the target A/Turkey/Ontario/6118/1967 (Influenza A virus). Briefly: ELISA on coated recombinant HA.
In assay [7] the target is A/Duck/Czechoslovakia/1956 (Influenza A virus). Kind of assay: ELISA on coated recombinant HA.
Assay [8] has as its target H7 HA A/New York/107/2003, recombinant (influenza A virus). Kind of assay: ELISA on coated recombinant HA.
Assay [9] has as its target T3, H3 HA A/Texas/50/2012, recombinant soluble trimer (influenza A virus).
T3 construct: extracellular domain
Briefly: ELISA on coated recombinant HA.

In assay [10] the target is H5 HA A/Indonesia/05/2005 (H5N1), recombinant (influenza A virus). Briefly: ELISA on coated recombinant HA.
The target in assay [11] is T2, H3 HA A/Hong Kong/1/1968 (H3N2), …. Kind of assay: ELISA on coated recombinant HA. This is another data set of the same source.
Assay [12] concerns the target H1 HA A/South Carolina/1/1918 (H1N1) (influenza A virus, UniProt Q9WFX3 18-529). Kind of assay: BLI, biotinylated HA on streptavidin sensor. (In general: In BLI a coated tip is dipped into the sample, and binding shifts an interference pattern.)
Assay [13] deals with T2, H3 HA A/Hong Kong/1/1968 (H3N2), …. Kind of assay: BLI, biotinylated HA on streptavidin sensor.
For assay [14], the target named is T4, eHead_H1Solomon (wild-type H1 head domain monomer) (influenza A virus, UniProt B4URD6 65-276).
T4 chain: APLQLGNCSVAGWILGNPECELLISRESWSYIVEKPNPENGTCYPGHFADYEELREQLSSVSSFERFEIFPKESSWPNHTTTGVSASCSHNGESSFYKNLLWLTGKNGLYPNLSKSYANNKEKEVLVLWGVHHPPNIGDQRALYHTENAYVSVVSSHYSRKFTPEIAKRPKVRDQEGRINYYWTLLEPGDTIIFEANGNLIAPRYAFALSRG
Kind of assay: SPR. A general note: SPR reads the build-up and loss of mass on a sensor chip optically.

Assay [15] deals with T5, eHead-H3HK68_v1 (wild-type H3 head domain monomer) (influenza A virus, UniProt Q91MA7 53-335). Kind of assay: SPR.
Assay [16] deals with T4, eHead_H1Solomon (wild-type H1 head …). Kind of assay: SPR (Example 4, Table E).
Assay [17] addresses T5, eHead-H3HK68_v1 (wild-type H3 head …). Briefly: SPR (Example 4, Table E).

Positions count from the first letter of the chain named. Like-named read-outs stand apart in the source and are kept apart here.

B1: mAb H5.31 (hybridoma IgG) (antibody, V domains shown)
VH: EVQLVQSGGGLVQPGGSLRLSCEASRFTSSSYWITWVRQAPGKGLEWVANIKQDGSEKYFVDSVKGRFTISRDNASNSLYLQMSSLRAEDTAVYYCARGFLERLLLGRQGAYYYGMDVWGQGTTVTVSS
VL: DIQMTQSPSSLSASVGDRVTMTCRASQSISSSLNWYQQKPGKAPKLLIYAASNLQSGVPSRFSGSGSGTDFTLTISSLQPEDFATYYCQQSYTMPPELTFGGGTKVQIK
With B1, the EC50 (as a rule, the midpoint of the concentration-response curve) in [1] was found to be 0.006 µg/mL; with A/Puerto Rico/8/1934, 0.004 µg/mL; in assay [2] it was 0.006 µg/mL; in [3], 0.002 µg/mL; in [4], 0.009 µg/mL; in assay [5], 0.004 µg/mL. Also, the EC50 in assay [6] was 0.004 µg/mL; in [7], 0.006 µg/mL; in assay [8], above 2.5 µg/mL; in [9], 0.936 µg/mL; in assay [10], above 2.5 µg/mL.

B2: mAb H5.28 (hybridoma IgG) (antibody, V domains shown)
VH: EVQLVESGGGLVQPGGSLRLSCAASGFTFSTYWMTWVRQAPGKGLEWVANINQDGGEKYFVDSVKGRFTISRDNAKNSLFLQMNTLRAEDTAVYYCARGFLERLLLGRQGAYYYGMDVWGQGTTVTVSS
VL: B1 VL with T20S, S28I, T93S, M94T, Q107E
As for B2, the half-maximal effective concentration (EC50) in assay [1] was 0.022 µg/mL; with A/Puerto Rico/8/1934, 0.01 µg/mL; in assay [2], 0.182 µg/mL; in [3], 0.269 µg/mL; in assay [4], above 2.5 µg/mL; in assay [5], 0.014 µg/mL. The EC50 in assay [6] is above 2.5 µg/mL; in assay [7], 0.021 µg/mL; in assay [8], above 2.5 µg/mL; in [9], above 2.5 µg/mL; in [10] it was above 2.5 µg/mL.

B3: FluA-20-UCA IgG (unmutated common ancestor of FluA-20) (antibody, V domains shown)
VH: QVQLQESGPGLVKPSETLSLTCTVSGGSVSSGSYYWSWIRQPPGKGLEWIGYIYYSGSTNYNPSLKSRVTISVDTSKNQFSLKLSSVTAADTAVYYCARGTEDLGYCSGGSCPNHWGQGTLVTVSS
VL: not shown
As for B3, the EC50 in assay [11] came to 0.021 µg/mL.

B4: FluA-20 UCA Fab (Fab, V domains shown)
VH: B3 VH
VL: not shown
B4: the dissociation constant (Kd) (commonly the constant that tells how readily two partners part at equilibrium) in [12] was determined as 937 nM; in assay [13] it was 486 nM.

B5: FluA20_UCA (as used in the SPR experiments of Example 4) (antibody, V domains shown)
VH: B3 VH
VL: not shown
B5: the Kd in assay [14] was 500 nM; in assay [15], 530 nM; in [16], around 500 nM; in assay [17], around 500 nM.

B6: rFluA-20 Fab (Fab, V domains shown)
VH: QVQLQESGPGLVKPSETLSLTCSVSGVSVTSDIYYWTWIRQPPGKGLEWIGYIFYNGDTNYNPSLKSRVTMSIDTSKNEFSLRLTSVTAADTAVYFCARGTEDLGYCSSGSCPNHWGQGTLVTVSS
VL: DIQMTQSPSSLSASIGDRVTITCRPSQNIRSFLNWFQHKPGKAPKLLIYAASNLQSGVPSRFSGSGSGTEFTLTIRSLQPEDFATYYCQQSYNTPPTFGQGTKVEIK
The molecule B6 yielded a Kd in assay [12] of 46 nM.
